Measurements as given in patent US20040229298A1.
“And” between values parts separate entries of the source, which are not always exact repeats. Identical values can stand only once.

Key:
[1] = biological target: HPV16 E6 PDZ ligand peptide (biotinylated C-terminal peptide of the E6 protein of HPV 16) (human papillomavirus 16) (UniProt P03126); experiment: G assay ELISA, signal over GST-only well
[2] = biological target: HPV16 E6 PDZ ligand peptide (biotinylated C-terminal peptide of the E6 protein of HPV 16) (human papillomavirus 16) (UniProt P03126); experiment: G assay ELISA, immobilised GST-PDZ, 10 uM biotinylated peptide
[3] = biological target: GST-VARTUL PDZ domain (number not stated) (human) (UniProt Q14160); experiment: G assay ELISA, E6 PL peptide titrated on constant GST-PDZ
GST-VARTUL PDZ domain (number not stated) (human), sequence (Q14160 other isoform, or with tags, fused parts or gaps limits assumed): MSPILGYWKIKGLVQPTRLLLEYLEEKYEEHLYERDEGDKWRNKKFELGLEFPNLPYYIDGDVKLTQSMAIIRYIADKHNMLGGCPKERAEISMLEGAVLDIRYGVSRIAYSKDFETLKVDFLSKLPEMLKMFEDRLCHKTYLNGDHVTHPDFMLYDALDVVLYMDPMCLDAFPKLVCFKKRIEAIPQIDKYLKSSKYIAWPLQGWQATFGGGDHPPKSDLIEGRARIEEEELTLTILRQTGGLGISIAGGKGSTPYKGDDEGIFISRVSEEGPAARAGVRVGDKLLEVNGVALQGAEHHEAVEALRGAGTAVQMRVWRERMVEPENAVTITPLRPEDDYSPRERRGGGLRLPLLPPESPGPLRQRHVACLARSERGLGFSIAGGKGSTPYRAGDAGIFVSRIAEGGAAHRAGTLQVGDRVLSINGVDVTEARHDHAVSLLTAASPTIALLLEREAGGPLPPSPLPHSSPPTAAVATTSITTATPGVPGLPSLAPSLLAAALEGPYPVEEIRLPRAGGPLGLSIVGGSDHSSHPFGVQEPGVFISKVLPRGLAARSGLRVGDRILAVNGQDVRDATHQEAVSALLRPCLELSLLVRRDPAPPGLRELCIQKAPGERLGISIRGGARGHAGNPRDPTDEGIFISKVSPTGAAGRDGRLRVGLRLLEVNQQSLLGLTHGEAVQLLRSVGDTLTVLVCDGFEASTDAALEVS

[4] = biological target: GST-Magi3 PDZ domain 1 (human) (UniProt Q5TCQ9); experiment: as above
GST-Magi3 PDZ domain 1 (human), sequence (Q5TCQ9 other isoform, or with tags, fused parts or gaps limits assumed, form in doubt): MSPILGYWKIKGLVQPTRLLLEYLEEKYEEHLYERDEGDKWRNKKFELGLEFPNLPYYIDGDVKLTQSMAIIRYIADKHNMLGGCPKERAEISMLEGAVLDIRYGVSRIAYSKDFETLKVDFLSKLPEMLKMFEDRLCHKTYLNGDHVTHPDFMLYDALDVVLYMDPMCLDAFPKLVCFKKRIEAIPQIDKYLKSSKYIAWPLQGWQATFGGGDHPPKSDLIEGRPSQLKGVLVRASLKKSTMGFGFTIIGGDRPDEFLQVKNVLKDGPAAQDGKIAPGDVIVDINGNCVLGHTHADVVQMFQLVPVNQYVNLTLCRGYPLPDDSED

[5] = biological target: GST-VARTUL PDZ domain (number not stated) (human) (UniProt Q14160); experiment: Matrix/G assay ELISA, E6 peptide titrated on GST-PDZ
[6] = biological target: GST-Magi3 PDZ domain 1 (human) (UniProt Q5TCQ9); experiment: as above
[7] = biological target: GST-MAGI 1 PDZ domain 5 (human); experiment: G assay ELISA, 10 uM biotin peptide on anti-GST-captured GST-PDZ
[8] = biological target: GST-PTPL1 PDZ domain 2 (human); experiment: as above
[9] = biological target: GST-PIST PDZ domain 1 (human); experiment: as above
[10] = biological target: GST-MINT1 PDZ domains 1, 2 (human) (UniProt Q02410); experiment: as above
GST-MINT1 PDZ domains 1, 2 (human), sequence (Q02410 other isoform, or with tags, fused parts or gaps limits assumed): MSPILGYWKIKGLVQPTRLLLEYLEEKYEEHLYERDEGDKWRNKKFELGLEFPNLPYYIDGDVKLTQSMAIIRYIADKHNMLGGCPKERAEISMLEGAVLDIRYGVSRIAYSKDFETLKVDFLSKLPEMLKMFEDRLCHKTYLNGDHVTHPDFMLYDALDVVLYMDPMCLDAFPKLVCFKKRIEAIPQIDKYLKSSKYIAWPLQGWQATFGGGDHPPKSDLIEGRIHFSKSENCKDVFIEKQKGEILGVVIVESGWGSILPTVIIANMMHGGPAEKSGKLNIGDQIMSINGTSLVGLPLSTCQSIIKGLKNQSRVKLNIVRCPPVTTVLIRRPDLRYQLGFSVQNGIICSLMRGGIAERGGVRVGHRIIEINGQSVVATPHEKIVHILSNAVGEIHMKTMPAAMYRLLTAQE

[11] = biological target: GST-Magi2 PDZ domain 3 (human) (UniProt Q86UL8); experiment: as above
GST-Magi2 PDZ domain 3 (human), sequence (Q86UL8 other isoform, or with tags, fused parts or gaps limits assumed, form in doubt): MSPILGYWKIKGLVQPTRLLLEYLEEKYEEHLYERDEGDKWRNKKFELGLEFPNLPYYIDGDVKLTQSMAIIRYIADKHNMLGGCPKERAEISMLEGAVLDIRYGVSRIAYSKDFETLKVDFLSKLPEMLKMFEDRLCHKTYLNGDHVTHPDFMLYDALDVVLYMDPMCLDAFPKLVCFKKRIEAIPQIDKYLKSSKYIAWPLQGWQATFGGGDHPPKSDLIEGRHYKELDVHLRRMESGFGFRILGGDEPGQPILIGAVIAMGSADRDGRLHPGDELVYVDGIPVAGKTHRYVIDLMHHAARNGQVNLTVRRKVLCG

[12] = biological target: GST-EBP50 PDZ domain 1, clone #341.1 (human); experiment: as above
[13] = biological target: GST-KIAA1526 PDZ domain 1, clone #119.1 (human); experiment: as above
[14] = biological target: GST-HEMBA 1003117 PDZ domain 1, clone #226.2 (human); experiment: as above
[15] = biological target: GST-EBP50 PDZ domain 2, clone #168.2 (human); experiment: as above
[16] = biological target: GST-KIAA1719 PDZ domain 5 (human); experiment: as above
[17] = biological target: GST-Densin PDZ domain 1 (human); experiment: as above
[18] = biological target: GST-DLG-6 PDZ domain 1, clone #333.1 (human) (UniProt Q96JB8); experiment: as above
GST-DLG-6 PDZ domain 1, clone #333.1 (human), sequence (Q96JB8 other isoform, or with tags, fused parts or gaps): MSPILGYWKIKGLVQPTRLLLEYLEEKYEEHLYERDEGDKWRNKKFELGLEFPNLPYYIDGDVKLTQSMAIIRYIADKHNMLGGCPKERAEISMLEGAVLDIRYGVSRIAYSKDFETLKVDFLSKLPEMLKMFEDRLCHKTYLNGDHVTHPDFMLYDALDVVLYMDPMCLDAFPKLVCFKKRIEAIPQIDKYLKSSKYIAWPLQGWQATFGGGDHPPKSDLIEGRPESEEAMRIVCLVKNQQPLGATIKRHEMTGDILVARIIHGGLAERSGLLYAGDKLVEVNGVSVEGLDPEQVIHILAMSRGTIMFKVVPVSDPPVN

[19] = biological target: GST-PAR3 PDZ domain 3, clone #278.1 (human); experiment: as above

GST-INADL PDZ domain 3 fusion protein gave an OD S/N [1] of 1.86 and an Ave OD [2] of 0.485 A450 nm.
With “GST-Magi2 PDZ domain 5 fusion protein (from UniProt Q86UL8 920-1010)” the OD S/N [1] was 3.93 and the Ave OD [2] was 0.651 A450 nm.
GST-NeDLG PDZ domain 1 fusion protein was tested, and the OD S/N [1] was 1.98 and the Ave OD [2] was 0.516 A450 nm.
With GST-PDZK1 PDZ domain 3 fusion protein the OD S/N [1] was 1.92 and the Ave OD [2] was 0.5 A450 nm.
Work on “HPV16 E6 C-terminal PDZ ligand peptide (20 mer, biotinylated) (from UniProt P03126 139-158)” yielded an EC50 [3] of 940 nM, an EC50 [4] of 310 nM and an EC50 [5] of 940 nM. For the same substance, the EC50 [6] was 310 nM, the Ave OD [7] was 0.432 A450 nm and the OD S/N (ratio to GST only well) [7] was 1.77. It also gave an Ave OD [8] of 0.348 A450 nm, an OD S/N (ratio to GST only well) [8] of 1.8 and an Ave OD [9] of 0.386 A450 nm. The OD S/N (ratio to GST only well) [9] was 1.96, the Ave OD [10] was 0.365 A450 nm and the OD S/N (ratio to GST only well) [10] was 1.42. For the same substance, the Ave OD [11] was 0.416 A450 nm and 0.359 A450 nm, the OD S/N (ratio to GST only well) [11] was 1.98 and 1.65 and the Ave OD [12] was 0.43 A450 nm. The OD S/N (ratio to GST only well) [12] was 1.65, the Ave OD [13] was 0.425 A450 nm and the OD S/N (ratio to GST only well) [13] was 1.38. The Ave OD [14] was 0.36 A450 nm, the OD S/N (ratio to GST only well) [14] was 1.66 and the Ave OD [15] was 0.345 A450 nm. The OD S/N (ratio to GST only well) [15] was 1.99, the Ave OD [16] was 0.39 A450 nm and the OD S/N (ratio to GST only well) [16] was 1.81. For the same substance, the Ave OD [17] was 0.42 A450 nm and 0.35 A450 nm, the OD S/N (ratio to GST only well) [17] was 1.96 and 1.82 and the Ave OD [18] was 0.349 A450 nm. For the same substance, the OD S/N (ratio to GST only well) [18] was 2.04, the Ave OD [19] was 0.352 A450 nm and the OD S/N (ratio to GST only well) [19] was 1.8.
